# Measurements published in patent publication US20170368150A1, “METHODS OF TREATING PULMONARY SARCOIDOSIS” (GOTHAM BIOPHARMACEUTICALS, INC., priority 2014, published 2017).
# Experiments:
# bronchiectasis patients = details: large clinical trial; cited from earlier work
# [1] = test system: patient with chronic pulmonary sarcoidosis; test: n=1 long-term clinical treatment of a chronic pulmonary sarcoidosis patient with PULMOZYME; format: in vivo
# From the text: At times, the patient was bedridden, dyspneic, and could not climb stairs or walk more than 10 feet. Steroids had been prescribed by pulmonary specialists; however the side effects of steroid therapy (diabetes, weight gain, memory loss, mental confusion, crippling joint pain) were intolerable. The patient's pulmonary sarcoidosis was deemed ultimately refractory to steroid therapy, which was discontinued, leaving essentially no therapeutic options for this patient.
# PULMOZYME® was prescribed to the patient by a licensed medical practitioner to initiate treatment.
# The extended clinical timeline described above allowed for a distinction between remission and stabilization of the disease to be made. […] This was done on an annual basis for the patient described above for the typical “survival window” (8-14 years for patients with progressive, chronic disease).
# The clinical timeline for treatment of the patient described above with PULMOZYME® is represented diagrammatically in FIG. 3 during pretreatment and for the entire treatment interval.
# [2] = more than 10 years of treatment
molecule,measurement,setting,value
"dornase alfa (protein, listed as Homo sapiens) LKIAAFNIQTFGETKMSNATLVSYIVQILSRYDIALVQEVRDSHLTAVGKLLDNLNQDAPDTYHYVVSEPLGRNSYKERYLFVYRPDQVSAVDSYYYDDGCEPCGNDTFNREPAIVRFFSRFTEVREFAIVPLHAAPGDAVAEIDALYDVYLDVQEKWGLEDVMLMGDFNAGCSYVRPSQWSSIRLWTSPTFQWLIPDSADTTATPTHCAYDRIVVAGMLLRGAVVPDSALPFNFQAAYGLSDQLAQAISDHYPVEVMLK",benefit of treatment in bronchiectasis,bronchiectasis patients,failed to demonstrate any benefit
same,safety of treatment in bronchiectasis,bronchiectasis patients,potentially harmful
same,"pulmonary disease symptoms (dyspnea, inspissated secretions) on discontinuation of therapy","[1]; annual 2-week discontinuation, resolved upon resumption (2.5 mg qd 4x weekly)",worsened
same,arterial O2 saturation (finger pulse oximetry),"[1]; at present, on room air",98%
same,"Arterial oxygenation via pulse oximetry, SaO2","[1]; currently measured on room air, low of 70% in pre-treatment interval",99%
same,Chest physical therapy with postural drainage,[1]; during PULMOZYME therapy,none required
same,General quality of life,[1]; during PULMOZYME therapy,vastly improved
same,Rib fractures and abdominal hernias,[1]; during PULMOZYME therapy,none
same,Granuloma formation/expectoration,[1]; during treatment,occasional
same,sarcoid skin involvement,[1]; during treatment,unchanged
same,Remission of disease,[1]; judged by annual 14-day discontinuation,not evident
same,Emergency room visits and hospitalizations relating to pulmonary sarcoidosis,[1]; [2],none
same,Pulmonary exacerbations (pneumonia),[1]; [2],not been a single pulmonary exacerbation and none
same,routine chest x-rays during treatment,[1]; scarring not progressed to more severe disease,improvement
same,"Blood chemistry, liver and kidney function during treatment",[1]; single patient,normal
same,Exercise tolerance during treatment,[1]; single patient,unlimited
same,"Coughing, wheezing, dyspnea","[1]; single patient, continued therapy 3-4 days/week",none
same,Adverse events / side effects relating to PULMOZYME,"[1]; single patient, long-term treatment (more than 10 years; over 12 years)",complete absence of side effects and without side effects or incident and none
